# T1: human PD-L2 on the cell surface (human, UniProt Q9BQ51 20-273)
# T1 construct: whole, on cells; also called cell surface human PD-L2
# T1 sequence (looked up): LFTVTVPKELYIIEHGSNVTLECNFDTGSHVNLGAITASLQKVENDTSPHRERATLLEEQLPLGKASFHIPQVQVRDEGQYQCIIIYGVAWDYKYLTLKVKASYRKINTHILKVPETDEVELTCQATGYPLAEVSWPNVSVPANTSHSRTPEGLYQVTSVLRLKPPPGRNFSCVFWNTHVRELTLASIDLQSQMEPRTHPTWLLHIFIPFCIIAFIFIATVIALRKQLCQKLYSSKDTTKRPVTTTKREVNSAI
# Legend:
# [1] = molecular target: cynomolgus monkey PD-L1 protein (soluble) (cynomolgus monkey) (UniProt G7PSE7); experiment: ELISA, scFv; parameters: unit not given here
# Chain of cynomolgus monkey PD-L1 protein (soluble) (cynomolgus monkey) (G7PSE7 entry or part of it limits assumed): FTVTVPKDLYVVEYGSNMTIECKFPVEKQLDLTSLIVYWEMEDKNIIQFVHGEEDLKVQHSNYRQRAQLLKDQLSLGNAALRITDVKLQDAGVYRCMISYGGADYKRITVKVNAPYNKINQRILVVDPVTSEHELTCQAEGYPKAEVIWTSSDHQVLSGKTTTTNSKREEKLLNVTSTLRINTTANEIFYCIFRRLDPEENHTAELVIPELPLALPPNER
# [2] = molecular target: human PD-L1 protein (soluble, ELISA antigen and SPR analyte) (human) (UniProt Q9NZQ7); experiment: ELISA, scFv; parameters: unit not given here
# Chain of human PD-L1 protein (soluble, ELISA antigen and SPR analyte) (human) (Q9NZQ7 19-238 limits assumed): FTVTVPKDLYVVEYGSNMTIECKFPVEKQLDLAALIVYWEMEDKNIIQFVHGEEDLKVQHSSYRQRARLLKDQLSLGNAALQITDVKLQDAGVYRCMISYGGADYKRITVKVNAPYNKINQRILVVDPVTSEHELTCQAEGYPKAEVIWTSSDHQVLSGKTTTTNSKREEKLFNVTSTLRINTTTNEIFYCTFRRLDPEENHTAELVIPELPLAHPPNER
# [3] = molecular target: mouse PD-L1 protein (soluble) (mouse) (UniProt Q9EP73); experiment: ELISA, scFv; parameters: unit not given here
# Chain of mouse PD-L1 protein (soluble) (mouse) (Q9EP73 19-238 limits assumed): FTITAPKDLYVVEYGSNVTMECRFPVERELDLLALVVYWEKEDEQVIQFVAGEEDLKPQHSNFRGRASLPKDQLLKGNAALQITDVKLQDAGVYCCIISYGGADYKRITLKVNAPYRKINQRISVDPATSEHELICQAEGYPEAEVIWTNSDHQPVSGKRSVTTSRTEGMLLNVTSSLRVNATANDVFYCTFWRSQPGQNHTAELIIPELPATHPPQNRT
# [4] = molecular target: T2, human PD-L1 protein (soluble, ELISA antigen and SPR analyte) (human, UniProt Q9NZQ7 19-238); experiment: SPR
# T2 construct: biotinylated in the capture ELISA; also called PD-L1 (human)
# T2 sequence (Q9NZQ7 19-238 limits assumed): as the sequence (Q9NZQ7 19-238 limits assumed) above
# [5] = molecular target: T2, human PD-L1 protein (soluble, ELISA …); experiment: SPR, antibody captured on Protein A, PD-L1 as analyte
# Protocol: (§1) Antibodies were characterized for affinity and binding kinetics to PD-L1by SPR assay using ProteOn XPR36 (Bio-Rad). Protein A protein (Sigma) was immobilized to a GLM sensor chip (Bio-Rad) through amine coupling. Purified antibodies were flowed over the sensor chip and captured by the Protein A. The chip was rotated 90° and washed with running buffer (1 ><PBS/0.05% Tween20, Bio-Rad) until the baseline was stable. Five concentrations of human or cynomolgus monkey PD-L1and running buffer were flowed through the sensor chip at a flow rate of 100 μL/min for an association phase of 240s, followed by 600s dissociation. […] The chip was regenerated with pH 1.5 H₃PO₄ after each run. The association and dissociation curve was fit by 1:1 Langmuir binding model using ProteOn software.
# [6] = molecular target: T3, cynomolgus monkey PD-L1 protein (soluble) (cynomolgus monkey, UniProt G7PSE7 19-238); experiment: as above
# T3 construct: also called cyno PD-L1
# T3 sequence (G7PSE7 entry or part of it limits assumed): as the sequence (Q9NZQ7 19-238 limits assumed) above, with A33T, A34S, S62N, R68Q, Q82R, F173L, T185A, T192I, H215L counted along it
# Protocol: as §1
# [7] = molecular target: T4, human PD-L1 on the cell surface (CHO-K1 cells expressing human PD-L1) (human, UniProt Q9NZQ7 19-290); experiment: FACS on cells expressing human PD-L1, goat anti-human IgG Fc FITC
# T4 construct: the positions are those of the human PD-L1 alanine scan; also called cell surface human PD-L1; B7-H1
# T4 sequence (Q9NZQ7 19-290 limits assumed): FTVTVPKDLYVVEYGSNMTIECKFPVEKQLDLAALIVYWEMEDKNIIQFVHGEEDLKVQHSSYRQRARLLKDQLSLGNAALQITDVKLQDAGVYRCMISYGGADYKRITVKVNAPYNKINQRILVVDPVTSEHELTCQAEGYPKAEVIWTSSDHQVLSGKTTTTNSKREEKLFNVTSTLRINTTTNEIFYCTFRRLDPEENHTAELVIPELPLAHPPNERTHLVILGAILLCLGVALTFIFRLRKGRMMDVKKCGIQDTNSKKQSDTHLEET
# Protocol: (§2) Cross-reactivity was measured by FACS. […] Testing antibodies were diluted in wash buffer (1><PBS/1% BSA) and incubated with cells at 4° C. for 1 hour. After washing, the secondary antibody goat anti-human IgG Fc FITC (Jackson ImmunoResearch Lab) was added and incubated at 4° C. in the dark for 1 hour. The cells were then washed once and resuspended in 1><PBS/1% BSA, and analyzed by flow cytometry (BD).
# [8] = molecular target: T5, mouse PD-L1 on the cell surface (mouse, UniProt Q9EP73 19-290); experiment: FACS on cells expressing mouse PD-L1, goat anti-human IgG Fc FITC
# T5 construct: whole, on cells; also called cell surface mouse PD-L1
# T5 sequence (Q9EP73 19-290): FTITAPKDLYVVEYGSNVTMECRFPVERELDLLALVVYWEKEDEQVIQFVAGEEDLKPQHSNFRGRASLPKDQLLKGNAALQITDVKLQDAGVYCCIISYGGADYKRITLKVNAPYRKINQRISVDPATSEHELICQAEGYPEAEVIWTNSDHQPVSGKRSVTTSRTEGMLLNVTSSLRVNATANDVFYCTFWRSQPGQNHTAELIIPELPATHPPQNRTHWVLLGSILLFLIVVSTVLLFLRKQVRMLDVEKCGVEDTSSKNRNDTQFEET
# Protocol: as §2
# [9] = molecular target: T6, cynomolgus PD-L1 on the cell surface (cynomolgus, UniProt G7PSE7 19-290); experiment: FACS on cells expressing cynomolgus PD-L1, goat anti-human IgG Fc FITC
# T6 construct: also called cell surface cynomolgus PD-L1
# T6 sequence (G7PSE7 entry or part of it limits assumed): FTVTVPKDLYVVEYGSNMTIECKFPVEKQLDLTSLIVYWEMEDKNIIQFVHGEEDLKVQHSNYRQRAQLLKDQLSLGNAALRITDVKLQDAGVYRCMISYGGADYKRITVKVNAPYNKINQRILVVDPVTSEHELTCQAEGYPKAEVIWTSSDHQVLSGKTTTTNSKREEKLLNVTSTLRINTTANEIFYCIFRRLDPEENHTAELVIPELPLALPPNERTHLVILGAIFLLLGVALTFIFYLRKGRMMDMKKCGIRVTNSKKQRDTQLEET
# Protocol: as §2
# [10] = molecular target: T1, human PD-L2 on the cell surface; experiment: FACS on PD-L2+ CHO-K1 cells, goat anti-human IgG Fc FITC (cross-family test)
# Protocol: Testing antibodies were diluted in wash buffer (1><PBS/1% BSA) and incubated with cells at 4° C. for 1 hour. After washing, the secondary antibody goat anti-human IgG Fc FITC (Jackson ImmunoResearch Lab) was added and incubated at 4° C. in the dark for 1 hour. The cells were then washed once and resuspended in 1><PBS/1% BSA, and analyzed by flow cytometry (BD).
# [11] = molecular target: T4, human PD-L1 on the cell surface (CHO-K1 …); experiment: FACS competition: antibody against mouse Fc fusion-human PD-1 binding to cells expressing human PD-L1
# [12] = molecular target: T5, mouse PD-L1 on the cell surface; experiment: FACS competition: antibody against mouse Fc fusion-mouse PD-1 binding to cells expressing mouse PD-L1
# [13] = molecular target: T4, human PD-L1 on the cell surface (CHO-K1 …); experiment: FACS epitope binning: antibody mixed with biotinylated WBP315BMK1 on CHO-K1 cells expressing human PD-L1, Streptavidin-PE
# Protocol: (§3) CHO-K 1 cells expressing human PD-L1on the cell surface were incubated with the mixture of biotinylated benchmark antibodies and testing antibodies (serially diluted in wash buffer) at 4° C. for 1 hour. The cells were washed and the second antibody Streptavidin-PE were added and incubated for 30 min at 4° C. The cells were then washed once and resuspended in 1><PBS/1% BSA, and analyzed by flow cytometery.
# [14] = molecular target: T4, human PD-L1 on the cell surface (CHO-K1 …); experiment: FACS epitope binning: antibody mixed with biotinylated WBP315BMK6 on CHO-K1 cells expressing human PD-L1, Streptavidin-PE
# Protocol: as §3
Binder,Bmax [1],Bmax [2],Bmax [3],koff [4] [s⁻¹],Kd [5] [nM],koff [5] [s⁻¹],kon [5] [M⁻¹ s⁻¹],Kd [6] [nM],koff [6] [s⁻¹],kon [6] [M⁻¹ s⁻¹],EC50 (read off the curve) [7] [nM],EC50 (read off the curve) [8] [nM],EC50 (read off the curve) [9] [nM],binding result [10],IC50 (read off the curve) [11] [nM],IC50 (read off the curve) [12] [nM],IC50 (read off the curve) [13] [nM],IC50 (read off the curve) [14] [nM]
"W3152-r11.135.5-zAb17-m6 (scFv) (scFv, part only; not given: linker, domain order, tag, V domains shown, not shown: another chain or arm of the molecule; small tags and cut ends) VH: QVQLQESGPGLVKPSETLSLTCTVSGFSLTENSVSWIRQPPGKGLEWIGAVWSSGSTDYNSALKSRVTISRDTSKNQFSLKLSSVTAADTAVYYCTRSTYSNDFYYYFDYWGQGTMVTVSS VL: SYELTQPPSVSVSPGQTASITCSGSELPKRYAYWYQQKPGQSIVRVIYKDSERPSGISERFSGSSSGNTATLTISGTQAMDEADYYCSSTYGDRKLPIFGGGTKLTVL",2.4,3.22,3.46,,,,,,,,,,,,,,,
"W3152-r11.135.5-zAb17-m6-uIgG4L (antibody, V domains shown, also called W3152-r11.135.5-zAb17-m6-IgG4L) VH: QVQLQESGPGLVKPSETLSLTCTVSGFSLTENSVSWIRQPPGKGLEWIGAVWSSGSTDYNSALKSRVTISRDTSKNQFSLKLSSVTAADTAVYYCTRSTYSNDFYYYFDYWGQGTMVTVSS VL: SYELTQPPSVSVSPGQTASITCSGSELPKRYAYWYQQKPGQSIVRVIYKDSERPSGISERFSGSSSGNTATLTISGTQAMDEADYYCSSTYGDRKLPIFGGGTKLTVLG",,,,0.00103,0.514,0.00145,2.81e+06,0.403,0.00101,2.52e+06,~0.2,~2,~1,no binding (tested: concentration not shown),~0.1,~2,~0.6,~2
